As a reminder, the Km is the substrate concentration at which the rate is half of its maximum. The kcat is the maximal rate divided by the concentration of active sites.

Here are results for one protein from paper PMC9670692.

Substrate in the data set: NC(=O)C[C@H](N)C(=O)O
Kind of data set: purified protein. As to conditions: PBS pH 7.2, 37 °C, 1-200 mM asparagine.

B1: PtAsp2like1 (Picrophilus oshimae DSM 9789) (protein)
chain: MNVIMLHGGAGSTGVEQKLMEYAVKSKSGSALDSVCNAVVLMENDPCFNAGTGSCMRLDGSIQMDAAVMTSKGFGSVMAIENVKNPVLVARAVMERSPHLIMAGDGAEKFAHLLGFEKYDPSTERAAKRRENDISMILSRKIDSYNKMMETVDISKFVDTVGAVARVNGEFAAAVSTGGAPPMLRGRVGDSPVPGAGIFCGENGAVVATGVGEEIIKNMLCISIYNEIGRESLSKIVMKNISRFRYHAGVIAVSNEEYFAYSNTDMSYAALEF
As to B1, the Michaelis-Menten constant (Km) came out at 11.69 mM and the kcat worked out at 0.056 s⁻¹.
